Results on one molecule are retold here after patent US20240228592A1 (BIO THERA SOLUTIONS, published 2024).

This assay deals with T1, spike-RBD-mFC (sino biologicals) (SARS-COV-2, UniProt P0DTC2 319-541).
T1 construct: domain: RBD; also called spike protein in SARS-COV-2
In words: ELISA, spike-RBD-mFC coated, anti-human kappa light chain-peroxidase detection. A general note: ELISA stands for enzyme-linked immunosorbent assay.

B1: antibody 9 (antibody, V domains shown)
VH: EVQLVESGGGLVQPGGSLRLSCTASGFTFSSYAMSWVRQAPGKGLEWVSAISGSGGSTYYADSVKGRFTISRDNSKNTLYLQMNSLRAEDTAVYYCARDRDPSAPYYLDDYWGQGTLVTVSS
VL: DIQMTQSPSSLSASVGDRVTITCRASQGISSYLAWYQQKPGKAPKLLIYAASSLQSGVPSRFSGSGSGTDFTLTISSLQPEDFATYYCQQHYTTPPTFGQGTKVEIKR
In the case of B1, the half-maximal effective concentration (EC50) (usually the concentration at which the effect is half-maximal) was found to be 2.76 nM. This lies in the single-digit nanomolar range.
